{"source": "paper PMC6731095", "about": "“Regulation of Eag1 gating by its intracellular domains” (eLife, 2019)", "binders": {"B1": {"name": "Eag1 Δ3–13 (rat Kv10.1/Eag1/Kcnh1, residues 3–13 deleted, C-terminal unstructured region 773-886 removed) (natural protein, UniProt Q63472 1-962, looked up)", "chain": "MTQNTFLENIVRRSNDTNFVLGNAQIVDWPIVYSNDGFCKLSGYHRAEVMQKSSACSFMYGELTDKDTVEKVRQTFENYEMNSFEILMYKKNRTPVWFFVKIAPIRNEQDKVVLFLCTFSDITAFKQPIEDDSCKGWGKFARLTRALTSSRGVLQQLAPSVQKGENVHKHSRLAEVLQLGSDILPQYKQEAPKTPPHIILHYCVFKTTWDWIILILTFYTAILVPYNVSFKTRQNNVAWLVVDSIVDVIFLVDIVLNFHTTFVGPAGEVISDPKLIRMNYLKTWFVIDLLSCLPYDVINAFENVDEGISSLFSSLKVVRLLRLGRVARKLDHYIEYGAAVLVLLVCVFGLAAHWMACIWYSIGDYEIFDEDTKTIRNNSWLYQLALDIGTPYQFNGSGSGKWEGGPSKNSVYISSLYFTMTSLTSVGFGNIAPSTDIEKIFAVAIMMIGSLLYATIFGNVTTIFQQMYANTNRYHEMLNSVRDFLKLYQVPKGLSERVMDYIVSTWSMSRGIDTEKVLQICPKDMRADICVHLNRKVFKEHPAFRLASDGCLRALAMEFQTVHCAPGDLIYHAGESVDSLCFVVSGSLEVIQDDEVVAILGKGDVFGDVFWKEATLAQSCANVRALTYCDLHVIKRDALQKVLEFYTAFSHSFSRNLILTYNLRKRIVFRKISDVKREEEERMKRKNEAPLILPPDHPVRRLFQRFRQQKEARLAAERGGRDLDDLDVEKGNALTDHTSANHSLVKASVVTVRESPATPVSFYPIPEQTLQATVLEVKHELKEDIKALNAKMTSIEKQLSEILRILMSRGSSQSPQDTCEVSRPQSPESDRDIFGAS", "notes": "Kv10.1/Eag1/Kcnh1, Rattus norvegicus, Uniprot Q63472; whole channel with residues 3-13 of the PAS loop deleted and the C-terminal unstructured region 773-886 removed; The GFP tag was removed with PreScission protease; also called calmodulin insensitive mutant; not shown: GFP, C-terminal, cleaved; His6, C-terminal, cleaved"}}, "key": {"Calmodulin": {"biological_target": "T1, Calmodulin (human, UniProt P0DP24 1-149)", "T1 construct": "Calmodulin, Homo sapiens, Uniprot P0DP24; Calcium (1 mM CaCl2) was present throughout; also called CaM; source: HEK293S GnTI-, infected with BacMam baculovirus together with Eag1 Δ3–13 baculovirus, co-purified with Eag1 Δ3–13", "test": "cryo-EM structure; Eag1 Δ3–13 and CaM co-expressed and co-purified; 20 mM Tris pH 8, 300 mM KCl, 1 mM CaCl2, 0.05% digitonin; 5 mg/ml; C4 symmetry imposed; two conformations", "settings": "both partners purified"}, "[1]": {"biological_target": "the molecule itself", "test": "cryo-EM structure; Eag1 Δ3–13 and CaM co-expressed and co-purified; 20 mM Tris pH 8, 300 mM KCl, 1 mM CaCl2, 0.05% digitonin; 5 mg/ml; C4 symmetry imposed; two conformations"}}, "data": [{"binder": "B1", "values": [{"measurement": "binding result", "setting": "Calmodulin", "result": "binds"}, {"measurement": "stoichiometry N", "setting": "[1]", "result": 4}]}]}
